# T1: biotin-PDGF-bb (human), P01127
# T1 chain: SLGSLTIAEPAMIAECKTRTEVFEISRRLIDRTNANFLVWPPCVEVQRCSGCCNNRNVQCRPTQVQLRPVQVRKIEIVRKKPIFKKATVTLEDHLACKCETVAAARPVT
# Target: biotin-VEGF-A (8-109) (human)
# Experiment: SPR; […]; Biacore S200, […] (PBS with 0.05% Tween 20, pH 7.4); […]
# Sequence of biotin-VEGF-A (8-109) (human) (P15692 whole entry): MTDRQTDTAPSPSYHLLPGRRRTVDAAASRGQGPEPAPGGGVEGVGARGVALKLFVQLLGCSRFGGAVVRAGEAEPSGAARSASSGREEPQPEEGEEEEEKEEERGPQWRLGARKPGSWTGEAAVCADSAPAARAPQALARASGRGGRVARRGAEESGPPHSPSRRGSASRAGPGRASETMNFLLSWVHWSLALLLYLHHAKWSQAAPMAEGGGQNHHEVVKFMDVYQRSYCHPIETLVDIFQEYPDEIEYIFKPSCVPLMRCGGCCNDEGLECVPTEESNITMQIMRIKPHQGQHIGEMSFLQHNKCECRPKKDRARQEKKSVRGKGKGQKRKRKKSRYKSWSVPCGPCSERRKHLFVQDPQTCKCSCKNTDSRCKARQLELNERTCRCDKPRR
row,Kd,Binder
1,> 1.5 µM,GCMTPWFPFTINCKQDSDCLAGCVCGPNGFCG (designed binder) [V-EET-3]
2,> 20 µM,GCTTPWVPHHIMCKQDSDCLAGCVCGPNGFCG (designed binder) [V-EET-1]
3,> 30 µM,GCQTPWFPHQILCKQDSDCLAGCVCGPNGFCG (designed binder) [V-EET-2]
4,> 50 µM,GCAGKSCKKWSSVHCDAGCFCQIGQQVVYIPGCV (designed binder) [V-MCH-1]
5,> 3.6 µM,VGECSQPWFINMCNMVDCCSQFGYCGKGPKYCG (designed binder) [V-AMP-1]

# Target: T1, biotin-PDGF-bb (human), P01127
# Experiment: as above
row,Kd,Binder
1,> 20 µM,"GCSHWLQEMFGFCKQDSDCLAGCVCEISETCG (designed binder, modifications not checked) [P-EET-2]"
2,> 6.7 µM,"GCFDDNPFIACKQDSDCLAGCVCWYDTWCG (designed binder, modifications not checked) [P-EET-6]"

# From paper PMC10977726
